The source of these data is paper PMC10641069, “Intra- and inter-molecular regulation by intrinsically-disordered regions governs PUF protein RNA binding” (Nature Communications, 2023).

Several values for one entry are separate records, joined by “and”; a condition that tells them apart may be missing. Identical values can stand only once. Like-named read-outs stand apart in the source and are kept apart here.

One data set deals with T1, FBF-2 RBD+CT (Caenorhabditis elegans, UniProt Q09312 164-632).
T1 sequence: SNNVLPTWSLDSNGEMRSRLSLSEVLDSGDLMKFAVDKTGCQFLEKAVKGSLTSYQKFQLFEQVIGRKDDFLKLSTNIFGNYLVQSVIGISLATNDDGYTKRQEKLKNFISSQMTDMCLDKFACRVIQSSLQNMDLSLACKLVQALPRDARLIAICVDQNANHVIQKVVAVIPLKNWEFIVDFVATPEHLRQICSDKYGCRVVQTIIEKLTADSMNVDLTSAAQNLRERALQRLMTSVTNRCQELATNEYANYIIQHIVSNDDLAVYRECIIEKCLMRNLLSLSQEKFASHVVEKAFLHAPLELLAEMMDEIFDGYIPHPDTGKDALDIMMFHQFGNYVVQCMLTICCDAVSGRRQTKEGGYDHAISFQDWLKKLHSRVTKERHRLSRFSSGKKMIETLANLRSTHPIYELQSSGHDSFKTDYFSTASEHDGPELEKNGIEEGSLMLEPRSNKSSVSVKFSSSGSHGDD
The data set can be described thus: crystal structure; 2.1 A; 30% PEG 400, 0.1 M Tris pH 8.5; EMSA: FBF-2 in 20 mM HEPES pH 7.4, 150 mM NaCl, 0.5 mM TCEP mixed 1:1 with 5 nM final RNA in 10 mM HEPES pH 7.4, 0.01% Tween 20, 0.1 mg/ml BSA, 0.1 mg/ml yeast. As to conditions: protein: recombinant; tags: none (His6-SUMO removed with Ulp1).

A short description of data set [1]: Melting temperature of FBF-2 proteins. The class given is physicochemical. How it is done:
Mutants of FBF-2 RBD + CT: Y479A (5′-[…]), L610A (5′-[…]), and Loop6A (E592A, D594A, E597A, E599A, E604A, E605A; 5′-[…]) were generated by site-directed mutagenesis with the primers indicated. Plasmid sequences were verified by DNA sequencing (Azenta Life Sciences). Protein variants were expressed and purified like wild type proteins. Melting temperatures of wild type and mutant proteins were assessed by differential scanning […]. Reaction mixtures (total volume of 20 μl) contained ~0.3 mg/ml FBF-2 proteins and Sypro Orange dye (1:1000 dilution) (Sigma). Fluorescent intensity was collected from 25 °C to 95 °C (3 °C increment/min) with a real time PCR instrument (Applied Biosystems™ QuantStudio 7 Flex System) using excitation and emission wavelengths of 470 nm and 586 nm, respectively. Protein Thermal Shift^TM software (Applied Biosystems, version 1.4) was used to analyze protein melting curves and calculate melting temperatures (Tm).

In data set [2] the target is gld-1 FBEa RNA. Briefly: Surface plasmon resonance, RNA-binding kinetics. The arrangement: species or system C. elegans. How it is done:
Kinetics of FBF-2 binding to the gld-1 FBEa RNA were measured using a 2-channel OpenSPR instrument (Nicoya). A 3′-biotin-labeled synthetic RNA was ordered from Horizon Discovery (gld-1 FBEa, 5′-AUCAUGUGCCAUACA-biotin-3′). The 3′-biotinylated RNA was immobilized on streptavidin-treated biotin sensor chips (Nicoya). All experiments were performed at 20 °C with a buffer of 20 mM HEPES, pH 7.4, 150 mM NaCl, and 2 mM DTT. SPR data were collected using OpenSPR (Nicoya, version 4.3). FBF-2 proteins were injected with a flow rate of 20 µl/min. Data were obtained at five different protein concentrations (25, 50, 100, 200, and 400 nM for wild type RBD + CT; 12.5, 25, 50, 100, and 200 nM for RBD + CT mutants and wild type RBD). Sensor chips were regenerated using 0.05% or 0.1% (v/v) SDS. For each experiment, five binding curves were simultaneously fit using a 1:1 binding model with the TraceDrawer software (Ridgeview Instruments, version 1.9.1). Mean values and standard deviation were calculated from two technical replicates. Despite our efforts, the fit of the binding curves for the association phase of FBF-2 RBD and FBF-2 RBD + CT mutants is poorer than the fit for FBF-2 RBD + CT WT. The appearance of the curves is consistent with the derived kon and koff values, and importantly, the curve fit for the dissociation phase is better.

Another data set has as its system LST-1. The settings on record: Y479A mutation; cited from earlier work.
The target of data set [3] is gld-1 FBEa RNA. The data set can be described thus: Electrophoretic mobility shift assay (EMSA), RNA binding. The arrangement: species or system C. elegans. How it is done: A 3′-Cy5-labeled synthetic RNA was ordered from IDT (gld-1 FBEa, 5′-[…]-3′). The FBF-2 proteins were serially diluted 2-fold from the highest concentration of 10 µM in the buffer used for gel filtration (20 mM HEPES pH 7.4, 150 mM NaCl, and 0.5 mM TCEP). 10 µl of the serially diluted protein samples were mixed with 10 µl RNA (10 nM) in a 2× buffer of 10 mM HEPES pH 7.4, 0.01% (v/v) Tween 20, 0.1 mg/ml BSA, 0.1 mg/ml yeast tRNA, and 2 mM DTT. For experiments in the presence of LST-1, LST-1 proteins at constant concentration were preincubated with FBF-2 at 4 °C for 2 h. The LST-1 concentrations were chosen based on their Kd’s for interaction with FBF-2. The final FBF-2 concentrations ranged from 5000 nM to 0.6 nM, and the LST-1 A or B concentrations were constant at 150 μM or 50 μM, respectively. The protein-RNA mixtures were incubated at 4 °C overnight. The samples were resolved on 10% TBE polyacrylamide gels run at constant voltage (100 V) with 1× TBE buffer at room temperature for 35 min. The gels were scanned and visualized with a Typhoon FLA 9500 imager using the Cy5 channel (excitation wavelength 635 nm). Band intensities were quantified with ImageQuant 5.2 (Cytiva). The data were fit with GraphPad Prism (version 9.2.0) using nonlinear regression with a one-site specific binding model. Mean Kd’s and standard error of the mean (SEM) from three or more technical replicates are reported (Supplementary Table 4). Full scan images for the replicates shown in the main figures and gel images for all replicates are included in a source data file.

[4] abbreviates: mean ± SD, two technical replicates, 20 °C, pH 7.4, 1:1 model.

B1: cFBE RNA (ssRNA)
RNA: CUGUGAAUG
In the case of B1, the binding result in the data set with FBF-2 RBD+CT is on record as “binds”.

B2: FBF-2 RBD + CT Y479A: FBF-2 RBD + CT mutated in the R7-R8 loop (Y479A) (protein, UniProt Q09312 164-632, looked up, variant Y479A)
chain: SNNVLPTWSLDSNGEMRSRLSLSEVLDSGDLMKFAVDKTGCQFLEKAVKGSLTSYQKFQLFEQVIGRKDDFLKLSTNIFGNYLVQSVIGISLATNDDGYTKRQEKLKNFISSQMTDMCLDKFACRVIQSSLQNMDLSLACKLVQALPRDARLIAICVDQNANHVIQKVVAVIPLKNWEFIVDFVATPEHLRQICSDKYGCRVVQTIIEKLTADSMNVDLTSAAQNLRERALQRLMTSVTNRCQELATNEYANYIIQHIVSNDDLAVYRECIIEKCLMRNLLSLSQEKFASHVVEKAFLHAPLELLAEMMDEIFDGAIPHPDTGKDALDIMMFHQFGNYVVQCMLTICCDAVSGRRQTKEGGYDHAISFQDWLKKLHSRVTKERHRLSRFSSGKKMIETLANLRSTHPIYELQSSGHDSFKTDYFSTASEHDGPELEKNGIEEGSLMLEPRSNKSSVSVKFSSSGSHGDD
In the case of B2, the thermal stability entry in data set [1] (in words, vs RBD alone or vs RBD + CT) is given as “decreased the thermal stability”. Moreover, the Tm in data set [1] (mean ± SD, three technical replicates, ~0.3 mg/ml protein, Sypro Orange, 25 to 95 °C, fluorescence) came out at 35.25 ± 0.05 °C; in data set [1] (replicate 1), 35.30 °C; in data set [1] (replicate 2), 35.30 °C; in data set [1] (replicate 3), 35.16 °C. In addition, the Kd at gld-1 FBEa RNA [2] (derived from on/off rates, mean ± SD, two technical replicates) was 12.9 ± 6.4 nM; on gld-1 FBEa RNA [2] (replicate 1), 17.4 nM; on gld-1 FBEa RNA [2] (replicate 2) it was 8.3 nM; at gld-1 FBEa RNA [3], 36 nM and 39 nM and 47 nM; at gld-1 FBEa RNA [3] (no LST-1, mean ± SEM of independent technical replicates (n = 3-5), 4 °C overnight, pH 7.4, Cy5-RNA 5′-AUCAUGUGCCAUAC-3′), 62 nM; at gld-1 FBEa RNA [3] (no LST-1, replicate 1), 75 nM. Moreover, the Kd stood at 64 nM at gld-1 FBEa RNA [3] (no LST-1, replicate 2); 48 nM at gld-1 FBEa RNA [3] (no LST-1, replicate 3); 41 ± 6 nM at gld-1 FBEa RNA [3] (pH 7.4). Moreover, the koff in the data set with gld-1 FBEa RNA [2] (setting [4]) was 1.18 ± 0.11 x10^-3 s^-1; in the data set on gld-1 FBEa RNA [2] (replicate 1, read-out: koff) it was 0.00125 s⁻¹; in the data set with gld-1 FBEa RNA [2] (replicate 2, read-out: koff) it was 0.0011 s⁻¹. Also, the kon with gld-1 FBEa RNA [2] (setting [4]) was 10.2 ± 4.3 x10^4 M^-1 s^-1; in the data set with gld-1 FBEa RNA [2] (replicate 1), 71900 M⁻¹ s⁻¹; with gld-1 FBEa RNA [2] (replicate 2) it was 133000 M⁻¹ s⁻¹. Besides, in the data set on LST-1, the “interaction with LST-1” value is “disrupts interaction between FBF-2 and LST-1”.
